Test results taken from paper PMC11137577, “Unusual OB-fold protein PrgE and its role in conjugation”.

Legend:
[1] = target: PrgE (Enterococcus faecalis (plasmid pCF10)); assay: SEC-MALS; 60 μM PrgE, Superdex 200 Increase 10/300 GL, 20 mM Hepes pH 7.5, 300 mM NaCl
ΔN-PrgE = ΔN-PrgE (Enterococcus faecalis (plasmid pCF10), UniProt D1LHE9 13-144, del1-12); assay: fluorescence anisotropy; 50 mM NaCl; 20 mM Hepes pH 7.5, 50 or 100 mM NaCl, 10 nM FITC-DNA, 0-20 uM protein, 30 min at RT; conditions: protein: recombinant, tags: C-terminal 10xHis removed with 3C (PreScission) protease
PrgE WT [2] = target: T1, PrgE WT (Enterococcus faecalis (plasmid pCF10), UniProt D1LHE9 1-144); assay: fluorescence anisotropy; 100 mM NaCl; 20 mM Hepes pH 7.5, 50 or 100 mM NaCl, 10 nM FITC-DNA, 0-20 uM protein, 30 min at RT; conditions: protein: recombinant, tags: C-terminal 10xHis removed with 3C (PreScission) protease, chain copies: 3
T1 sequence: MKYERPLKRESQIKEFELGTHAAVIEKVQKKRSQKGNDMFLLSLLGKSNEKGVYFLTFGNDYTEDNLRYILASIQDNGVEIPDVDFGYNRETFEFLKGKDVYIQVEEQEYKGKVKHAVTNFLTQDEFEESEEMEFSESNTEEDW

PrgE WT [3] = target: T1, PrgE WT; assay: fluorescence anisotropy; 50 mM NaCl; quadratic fit (Hill coefficient ca 1.5 in Hill fit); 20 mM Hepes pH 7.5, 50 or 100 mM NaCl, 10 nM FITC-DNA, 0-20 uM protein, 30 min at RT; conditions: protein: recombinant; tags: C-terminal 10xHis removed with 3C (PreScission) protease; chain copies: 3; label: 5' FITC; single strand
PrgE WT [4] = target: T1, PrgE WT; assay: fluorescence anisotropy; 50 mM NaCl; 20 mM Hepes pH 7.5, 50 or 100 mM NaCl, 10 nM FITC-DNA, 0-20 uM protein, 30 min at RT; conditions: protein: recombinant, tags: C-terminal 10xHis removed with 3C (PreScission) protease, chain copies: 3
PrgE WT [5] = target: T1, PrgE WT; assay: X-ray crystal structure; 15% PEG 400, 50 mM MES pH 6.5, 80 mM Mg acetate, 15 mM MgCl2; 5 nt per subunit; 20 mM Hepes pH 7.5, 50 or 100 mM NaCl, 10 nM FITC-DNA, 0-20 uM protein, 30 min at RT; conditions: protein: recombinant; tags: C-terminal 10xHis removed with 3C (PreScission) protease; chain copies: 3; single strand
[6] = label: 5' FITC on strand 1, blunt

## PrgE (natural protein)
[1]
  stoichiometry N: 3

B1: 60-mer ssDNA (ssDNA)
DNA: CAGTGACAGTCTCCACGGTGAAGCAGTCGTACCTCTTGACGCATGAATAGATATATGTTA
ΔN-PrgE; label: 5' FITC, single strand
  Kd: 4490 ± 480 nM
PrgE WT [2]; label: 5' FITC, single strand
  Kd: 370 ± 10 nM
PrgE WT [3]
  Kd: 330 ± 20 nM

B2: 60-mer dsDNA (dsDNA)
DNA 1: B1 DNA
DNA 2: TAACATATATCTATTCATGCGTCAAGAGGTACGACTGCTTCACCGTGGAGACTGTCACTG
ΔN-PrgE; [6]
  Kd: 5560 ± 190 nM
PrgE WT [4]; [6]
  Kd: 500 ± 140 nM
PrgE WT [2]; [6]
  Kd: 950 ± 30 nM

B3: Poly-A 60-mer (ssDNA)
DNA: AAAAAAAAAAAAAAAAAAAAAAAAAAAAAAAAAAAAAAAAAAAAAAAAAAAAAAAAAAAA
PrgE WT [5]
  binding result: binds

B4: 30-mer dsDNA (dsDNA)
DNA 1: CAGTGACAGTCTCCACGGTGAAGCAGTCGT
DNA 2: ACGACTGCTTCACCGTGGAGACTGTCACTG
ΔN-PrgE; [6]
  Kd: 4390 ± 240 nM
PrgE WT [4]; [6]
  Kd: 1960 ± 260 nM
PrgE WT [2]; [6]
  Kd: 3360 ± 280 nM

## CAGTGACAGTCTCCACGGTGAAGCAGTCGT (ssDNA) [30-mer ssDNA]
ΔN-PrgE; label: 5' FITC, single strand
  Kd: 3850 ± 490 nM
PrgE WT [4]; label: 5' FITC, single strand
  Kd: 1020 ± 20 nM
PrgE WT [2]; label: 5' FITC, single strand
  Kd: 1840 ± 150 nM
